Test results reported in patent publication US20030059763A1, “Immunoglobulin class switch recombination” (priority 2001, published 2003).

What was measured:
Ramos 2G6/XF-5a.1 cells = assay: Substrate switch recombination (SSR), GFP positive cells by FACS, construct XF-5a; format: cell-based, human; conditions: for effect on SSR: XF-5a / XF-5a.1 cells, antibodies 1 μg/ml, cytokines 5 ng/ml alone or with CD40 mAb
From the text: pXF-5a: A PCR amplified 356 bp fragment containing Iε exon and its 5′ promoter region (pIε) was inserted into Xho I and Xba I sites in pXF-1.
(§1) The backbone of our switch substrate contained 1.6 Kb of the human Sμ (Zhang and Cheah, 2000, supra) and 1.8 Kb of the human Sγ2 regions (Mills et al, 1995, supra) under the transcriptional control of the CMV (pCMV) and the SV40 promoters (pSV40) respectively. A RSV LTR enhancer/promoter (pRC/RSV-LTR) and a GFP gene under the control of an internal ribosome entry site (IRES) were interposed between Sμ and Sγ2 in the reverse transcriptional orientation (FIG. 1A). Thus, the GFP gene will not be expressed within the gennline configuration of the construct. Detection of switch recombination between the Sμ and Sγ2 in the construct is based on the mechanism of the deletional recombination that excises and deletes the intervening DNA sequences between the Sμ and Sγ2. This excised sequence including the IRES-GFP expression unit forms an extrachromosomal circular DNA that is now under the transcriptional control of the pRSV-LTR (FIG. 1A). The RNA splice donor and acceptor sites permit uniform expression of the GFP from the excised circular DNA (FIG. 1A). Since the GFP gene is expressed only after the switch recombination (recombination or inversion, FIG. 1A) between the Sμ and Sγ2, switch recombination can be monitored in the cultured living cells in “real-time” by fluorescence microscopy. Furthermore, the frequency of switch recombination can be quantitatively measured by flow cytometry.
(§2) To test the potential roles of DNA sequences that may control or regulate the processes involved in switch recombination, the DNA fragments of interest were engineered into the basic switch construct (XF-1) to generate a series of modified switch constructs as diagrammed in the FIG. 1B. All the modified constructs were transfected into Ramos 2G6 cells as stable constructs to establish the switch cell lines. The integrity and copy number of the constructs were determined by Southern Blot analysis and PCR. Only subclones that contain a single copy of the construct were used. To distinguish the substrate switch recombination described here from switch recombination occurring at the intrinsic IgH loci (e.g., CSR), the former is abbreviated as SSR.
(§3) The human B lymphoma cell line Ramos 2G6 (ATCC, Rockville pike, Md.) and its subclones, L cells stably transfected with human CD40L (CD154) provided by D. Rawlings, UCLA), and CHO cells stably transfected with murinc CD40L (Immunex Inc, Seattle, Wash.) were maintained and cultured in complete PRMI 1640 (Zhang et al, 1994, supra). One million cells in 0.2 ml were transfected with 10 μg plasmid DNA by electroporation (200V, 0.975 μF). Genicitin (G418) was added to cultures two days later for clonal selection and the levels increased over four week to concentrations that were previously determined by dosage titration for the different cell lines.
(§4) The expression of GFP in cell lines stably transfected with switch vectors following various stimulated culture conditions was measured by either single- or dual-color flow cytometry (FACS Core laboratory, UCLA). The data were analyzed with FCS express software (De Novo software Inc, Thornhill, Ontario, Canada).

[1] = system: Ramos 2G6 cells stably transfected with XF-1; assay: Substrate switch recombination (SSR), GFP positive cells by FACS, construct XF-1; format: cell-based, human; conditions: XF-1 cells; cytokines alone or in combination with CD40 mAb
From the text: as §1, §2, §3, §4

[2] = molecular target: CD40 on human B lymphoma cell line Ramos 2G6 (stably transfected with switch constructs XF-1 / XF-5a) (human) (UniProt P25942); assay: cell-based or functional assay
[3] = system: plasmid p77D3.11 (human Sμ and Sε); assay: In vitro (cell-free) switch recombination assay, white vs blue colonies; format: biochemical; conditions: added to the recombination reaction; EDTA 10 mM
Method: Nuclear cell extracts from primary human B cells and cell lines were prepared by the Nonidet P-40 (NP-40) lysis method (Dyer and Herzog, BioTechniques 19:192-195 (1995)) with important modifications. Briefly, 10^8 (10^7 for cell lines) purified fresh human tonsillar B lymphocytes (Zhang et al., 1994, supra) were harvested following culture for 3 days with or without 0.1 μg/ml of anti-CD40 monoclonal antibody G28.5 (Zhang et al., 1994, supra) and were lysed with 1 ml of sucrose buffer (0.32 M sucrose, 3 mM CaCl2, 2 mM magnesium acetate, 0.1 mM EDTA, 10 mM Tris-HCl, pH 8.0, 1 mM DTT, 0.5 mM PMSF) containing 0.5% (vol/vol) NL-40 (BRL, Gaithersburg, Mich.). The cells were lysed immediately and the intact nuclei were pelleted by centrifugation at 2400 rpm/5 min at 4° C. The nuclei were washed twice (10^8 B cells/ml) with ice-cold sucrose buffer lacking NP-40. The pelleted nuclei were suspended in 50 μl/10^8 B cells with low-salt buffer (20 mM Hepes, pH 7,6, 25% glycerol, 1.5 mM MgCl2, 20 mM KCl, 0.2 mM EDTA, 0.5 mM DTT, 0.5 mM PMSF) followed by slowly adding 1 vol of high-salt buffer (20 mM Hepes, pH 7.6, 25% glycerol, 1.5 mM MgCl2, 800 mL KCl, 0.2 mM EDTA, 0.5 mM DTT, 0.5 mM PMSF) at 4° C. for 30 min with agitation for nuclear protein extraction. […] The concentration of the nuclear protein was determined by Bradford assay. […]

[4] = system: Iε-Cε1′ transcripts in Ramos 2G6/XF-5a.1 cells; assay: RT-PCR of processed Iε-Cε1′ transcripts from the construct; format: cell-based, human; conditions: 48 hours, IL-4 1 ng/ml, CD40 mAb 1 μg/ml
Method: The cells were cultured in the presence of IL-4 (1 ng/ml) and CD40 mAb (1 μg/ml) for 48 hours following by RNA preparation and RT-PCR. Total RNA (2 μg) was used for reverse-transcription and cDNA derived from 0.2 μg of RNA was subject to PCR amplification using the primers diagrammed in the FIG. 7B. The ratio of SSR from the cultures (assayed at day 5) is shown in the bottom. […] Diagrams of the formation of the “germ line” transcripts Iε-Cε1′ from the transgenes and the Iε-Cε2 from the endogenous IgH ε locus are shown in the FIG. 7B. The arrows represent the positions of the primers used for PCR.
PCR and […] (RT-PCR) were performed as described previously (Zhang et al, 1994, supra; Zhang and Cheah, 2000, supra). For amplification of the Sμ-Sγ2 products, genomic DNA from the stably transfected Ramos 2G6 cells was amplified with PCR Kit for GC-rich DNA (Clonetech, Palo Alto, Calif.). […]
The role of transcriptional activity vs. SSR was further investigated using Ramos 2G6/XF-5a.1. As the XF-5a construct contains the Iε exon and a Cε1 exon (referred to as Cε1′) that is able to form processed transcripts through RNA splicing, transcriptional activity of the construct can be semi-quantitatively determined by measuring the Iε-Cε1′ transcripts by RT-PCR (FIG. 7). […]

[5] = system: Ramos 2G6 cells stably transfected with XF-2b; assay: Substrate switch recombination (SSR), construct XF-2b; format: cell-based, human; conditions: XF-2b cells
From the text: pXF-2b: The CMV promoter in pXF-2a was deleted by removal of the Ase I and Xho I fragment.
as §2
as §3, with “One million cells in 0.2 ml were transfected with 10 μg plasmid DNA by electroporation (200V, 0.975 μF).” left out, “lines. […]” for “lines.”

Sequence of CD40 on human B lymphoma cell line Ramos 2G6 (stably transfected with switch constructs XF-1 / XF-5a) (human) (P25942 21-277): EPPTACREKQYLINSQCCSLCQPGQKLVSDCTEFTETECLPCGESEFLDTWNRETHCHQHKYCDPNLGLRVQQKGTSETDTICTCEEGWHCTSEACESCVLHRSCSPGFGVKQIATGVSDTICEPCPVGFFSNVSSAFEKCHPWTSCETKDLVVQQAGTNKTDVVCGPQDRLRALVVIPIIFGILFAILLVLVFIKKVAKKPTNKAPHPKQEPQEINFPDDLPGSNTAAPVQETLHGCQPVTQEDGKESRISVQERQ

Molecule	effect on SSR (Ramos 2G6/XF-5a.1 cells)	effect on SSR frequency [1]	other results
TGF-β	did not increase	did not increase	–
IL-5: cytokine	did not increase	did not increase	–
IL-6: cytokine	did not increase	did not increase	–
Anti-CD40 mAb G28.5 (antibody)	–	–	GFP expression level (percent of cells), Ramos 2G6/XF-5a.1, in the presence of IL-4 [2]: > 50%; SSR frequency (percent GFP positive cells), Ramos 2G6/XF-5a.1, without IL-4 [2]: 3.2%; SSR rate (percent GFP positive cells), Ramos 2G6 with construct XF-1 [2]: 1.9%
O=C(O)CN(CCN(CC(=O)O)CC(=O)O)CC(=O)O [EDTA]	–	–	effect on recombination activity [3]: almost completely blocked the activity
IFN-γ: cytokine (protein, UniProt P01579 24-161, looked up) Interferon gamma: QDPYVKEAENLKKYFNAGHSDVADNGTLFLGILKNWKEESDRKIMQSQIVSFYFKLFKNFKDDQSIQKSVETIKEDMNVKFFNSNKKKRDDFEKLTNYSVTDLNVQRKAIHELIQVMAELSPAAKTGKRKRSQMLFRG	did not increase	did not increase	–
IL-4: cytokine purchased from R & D system (protein, UniProt P05112 25-153, looked up) Interleukin-4: HKCDITLQEIIKTLNSLTEQKTLCTELTVTDIFAASKNTTEKETFCRAATVLRQFYSHHEKDTRCLGATAQQFHRHKQLIRFLKRLDRNLWGLAGLNSCPVKEANQSTLENFLERLKTIMREKYSKCSS	limited effects	marginal effects	change of level of processed Iε-Cε1′ transcripts over pCMV-driven level [4]: minimally increased; SSR [5]: efficient SSR did not result; GFP expression, plateau of IL-4 dose-response (Ramos 2G6/XF-5a.1 cells; XF-5a cells, in the presence of CD40 mAb (1 μg/ml), plateau at 3 ng/ml IL-4): around 50%
IL-10: cytokine (protein, UniProt P22301 19-178, looked up) Interleukin-10: SPGQGTQSENSCTHFPGNLPNMLRDLRDAFSRVKTFFQMKDQLDNLLLKESLLEDFKGYLGCQALSEMIQFYLEEVMPQAENQDPDIKAHVNSLGENLKTLRLRLRRCHRFLPCENKSKAVEQVKNAFNKLQEKGIYKAMSEFDIFINYIEAYMTMKIRN	did not increase	did not increase	–
